Assay [1] deals with human Y1 receptor (human) (UniProt P25929). Kind of assay: 125I-PYY displacement, COS-7 membranes.
The target of assay [2] is human Y2 receptor (human) (UniProt P49146). The assay is described as follows: 125I-PYY displacement, COS-7 membranes.
In assay [3] the target is human Y4 receptor (human) (UniProt P0DQD5). Kind of assay: 125I-PYY displacement, COS-7 membranes.
The next assay addresses rat Y4 receptor (rat) (UniProt Q63447). Kind of assay: 125I-PYY displacement, COS-7 membranes.
Assay [4] addresses human Y4 receptor (human) (UniProt P0DQD5). Kind of assay: 125I-PYY displacement, COS-7 membranes. The source holds these as a separate data set.
For assay [5] the target is unchanged. Kind of assay: cell-based or functional assay.
Assay [6] shares this target. The assay is described as follows: 125I-PYY displacement, COS-7 membranes (as in Table 3).
Assay [7] deals with Y2-like receptor population expressed by human SK-N-Be(2) neuroblastoma cells. The assay is described as follows: 125I-PYY displacement, SK-N-Be(2) membranes.
Assay [8] shares this target. Kind of assay: ratio of Ki values, 125I-PYY displacement.
The target of assay [9] is human Y4 receptor (human) (UniProt P0DQD5). The assay is described as follows: 125I-PYY displacement, COS-7 membranes. This is another data set of the same source.
Assay [10] deals with human Y1 receptor (human) (UniProt P25929). Kind of assay: 125I-PYY displacement, COS-7 membranes. The source holds these as a separate data set.
For assay [11] the target is unchanged. Kind of assay: ratio of Ki values, 125I-PYY displacement.
Assay [12] deals with human Y4 receptor (human) (UniProt P0DQD5). The assay is described as follows: ratio of Ki values, 125I-PYY displacement.

Like-named read-outs stand apart in the source and are kept apart here.

Sequence of human Y2 receptor (human) (P49146 whole entry): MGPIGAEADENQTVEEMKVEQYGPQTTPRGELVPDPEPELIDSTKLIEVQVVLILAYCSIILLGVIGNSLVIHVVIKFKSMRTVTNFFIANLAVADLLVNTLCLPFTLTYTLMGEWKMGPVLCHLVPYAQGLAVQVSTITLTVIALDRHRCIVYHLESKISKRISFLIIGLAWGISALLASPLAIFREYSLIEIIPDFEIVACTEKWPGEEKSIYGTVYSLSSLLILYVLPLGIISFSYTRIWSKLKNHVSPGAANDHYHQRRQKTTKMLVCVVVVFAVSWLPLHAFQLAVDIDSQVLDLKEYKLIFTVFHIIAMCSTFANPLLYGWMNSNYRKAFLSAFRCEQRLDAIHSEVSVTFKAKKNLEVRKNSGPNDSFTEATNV
Sequence of human Y1 receptor (human) (P25929 whole entry): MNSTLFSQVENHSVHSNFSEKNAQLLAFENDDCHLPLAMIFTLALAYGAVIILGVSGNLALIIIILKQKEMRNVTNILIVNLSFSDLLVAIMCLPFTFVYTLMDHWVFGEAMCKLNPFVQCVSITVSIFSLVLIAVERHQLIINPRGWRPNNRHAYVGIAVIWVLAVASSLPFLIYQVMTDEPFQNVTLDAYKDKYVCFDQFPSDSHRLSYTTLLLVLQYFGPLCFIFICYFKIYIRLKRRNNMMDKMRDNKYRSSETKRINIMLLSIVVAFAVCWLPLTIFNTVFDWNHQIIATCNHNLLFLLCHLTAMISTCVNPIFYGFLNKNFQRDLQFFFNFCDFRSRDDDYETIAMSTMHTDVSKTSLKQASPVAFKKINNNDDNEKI
Sequence of PP, salmon (peptide) (P69092 whole entry): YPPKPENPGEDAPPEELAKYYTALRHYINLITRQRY
Sequence of human Y4 receptor (human) (P0DQD5 whole entry): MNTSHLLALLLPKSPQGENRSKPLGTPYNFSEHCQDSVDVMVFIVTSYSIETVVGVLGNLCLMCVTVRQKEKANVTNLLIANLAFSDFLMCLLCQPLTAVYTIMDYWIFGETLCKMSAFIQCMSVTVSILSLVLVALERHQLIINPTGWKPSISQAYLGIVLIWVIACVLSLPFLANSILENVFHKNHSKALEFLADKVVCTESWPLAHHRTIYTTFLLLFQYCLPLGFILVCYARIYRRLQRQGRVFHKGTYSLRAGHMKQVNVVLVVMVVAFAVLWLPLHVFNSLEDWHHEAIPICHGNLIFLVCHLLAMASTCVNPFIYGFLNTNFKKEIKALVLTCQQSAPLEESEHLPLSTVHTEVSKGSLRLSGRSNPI
Sequence of rat Y4 receptor (rat) (Q63447 whole entry R262P): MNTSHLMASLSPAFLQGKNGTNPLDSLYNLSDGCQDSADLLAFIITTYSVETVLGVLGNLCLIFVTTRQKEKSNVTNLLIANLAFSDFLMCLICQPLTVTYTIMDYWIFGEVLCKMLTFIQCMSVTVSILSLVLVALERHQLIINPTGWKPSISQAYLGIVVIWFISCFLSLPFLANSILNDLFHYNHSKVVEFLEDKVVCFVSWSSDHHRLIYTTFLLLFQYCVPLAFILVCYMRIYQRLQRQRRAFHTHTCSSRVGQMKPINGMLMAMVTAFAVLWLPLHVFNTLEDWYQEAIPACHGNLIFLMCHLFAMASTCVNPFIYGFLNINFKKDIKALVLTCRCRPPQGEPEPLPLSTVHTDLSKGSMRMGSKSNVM

Turning to C2-NPY, porcine (peptide), the Ki in [1] is 73 nM; in [2], 3.5 nM; in assay [3], 120 nM; in the assay with rat Y4 receptor (rat), 22 nM.
In the case of “PP31-36 free acid, human (from UniProt P01298 60-65) (peptide)”, the Ki in assay [4] was above 10000 nM.
Consider PP, avian (peptide), for which the Ki stood at 400 nM in [1] and 7 nM in assay [3].
On to PP, frog (peptide), for which the Ki in assay [1] is 98 nM; in assay [3], 61 nM; in the assay with rat Y4 receptor (rat) it was 0.19 nM; in assay [4], 62 nM.
For PP, salmon (peptide), the Ki in assay [1] is 0.2 nM; in assay [3], 3.2 nM; in assay [6], 3.2 nM; with rat Y4 receptor (rat), 0.36 nM. In addition, the EC50, inhibition of forskolin-stimulated cAMP accumulation, LM(tk-) cells in assay [5] amounted to 110 nM.
“human NPY free acid (from UniProt P01303 29-64) (peptide)” returned a Ki in assay [7] of 280 nM.
Regarding “human peptide YY (from UniProt P10082 29-64)”, the fold higher affinity than at hp25a in [8] is 5 to 10 fold. Also, the Ki in assay [7] stood at 0.11 nM.
On to “porcine NPY2-36 (from UniProt P01304 11-45) (peptide)”, for which the Ki amounted to 4.4 nM in assay [9], 2.4 nM in assay [1], 5.6 nM in assay [3] and 0.41 nM in assay [7].
For “porcine NPY13-36 (from UniProt P01304 22-45) (peptide)”, the Ki in assay [10] was found to be 51 nM; in assay [9], 39 nM; in assay [1], 70 nM; in assay [2], 2.5 nM; in assay [3], 38 nM; in the assay with rat Y4 receptor (rat), 135 nM.
On to “porcine NPY16-36 (from UniProt P01304 25-45) (peptide)”, for which the Ki in assay [10] was 45 nM; in assay [1] it was 41 nM; in assay [2], 3.6 nM; in assay [3], 54 nM; in [7], 5 nM.
For “porcine NPY18-36 (from UniProt P01304 27-45) (peptide)”, the Ki was 28 nM in [10]; 63 nM in [9]; 70 nM in assay [1]; above 290 nM in assay [6]; 2.1 nM in [7].
Take “porcine NPY20-36 (from UniProt P01304 29-45) (peptide)”: the Ki in assay [10] was determined as 62 nM; in assay [9], 100 nM; in [1], 63 nM; in assay [3] it was 120 nM; in [7], 3.1 nM.
In the case of “porcine NPY22-36 (from UniProt P01304 31-45) (peptide)”, the results for the fold loss in affinity against full length porcine NPY in [8], in assay [11] and in assay [12] were 11 fold, 3500 fold and 120 fold, respectively. In addition, the Ki in assay [10] was determined as 170 nM; in [9] it was 140 nM; in [2], 18 nM; in assay [7] it was 3.2 nM.
With “porcine NPY26-36 (from UniProt P01304 35-45) (peptide)”, the values for the Ki in assay [10], in assay [2] and in assay [7] were above 300 nM, 380 nM and 70 nM, respectively.

The term Ki denotes a dissociation constant, usually derived from enzyme kinetics or from competition with a known ligand. Lower therefore signals tighter binding.

The values are drawn from patent US6913892.
